Tests used:
[1] = Pentosidine quantification test (DA-67/peroxidase, A658); format: biochemical; conditions: 37° C., pH 7.0
Procedure: The following reagents were prepared, and pentosidine was measured using Bio Majesty JCA-BM1650 (manufactured by JEOL Ltd.).
0.2 μM, 0.4 μM, 0.6 μM, 1.0 μM, 2.0 μM or 4.0 μM pentosidine solution (prepared using the same pentosidine as in Example 2)
120 mM potassium phosphate buffer (pH 7.0)
0.2 mM DA-67 (10-(carboxymethylaminocarbonyl)-3,7-bis(dimethylamino)phenothiazine, sodium salt) (manufactured by FUJIFILM Wako Pure Chemical Corp.)
25 μL of each sample was added to 50 μL of the first reagent, and the mixture was incubated at 37° C. for 5 minutes. Then, 25 μL of the second reagent was added thereto, and pentosidine oxidation reaction mediated by PenOX2 and reaction for the detection of hydrogen peroxide produced through the reaction were allowed to proceed at 37° C. for 5 minutes.
In the reaction for the detection of hydrogen peroxide, DA-67 was oxidized, with concomitant consumption of […], into methylene blue which in turn developed color while absorbance (A658) was elevated. […] Elevation in A658 was able to be confirmed immediately after addition of the second reagent containing PenOX2.
Subsequently, the amount of elevation in A658 (ΔA) caused by the oxidation of pentosidine was calculated according to the following expression.
ΔA=(Absorbance 5 minutes after addition of the second reagent)−(Absorbance immediately before addition of the second reagent×0.75)

[2] = Heat stability and stable pH of PenOX2 (residual activity); conditions: treated at each temperature for 10 minutes; residual activity at 37° C., pH 7.5; FIG. 9
Procedure: 600 μL of an arbitrary buffer, 400 μL of a solution of 3.99 U/mL peroxidase, 1.8 mM 4-aminoantipyrine, and 2 mM TOOS dissolved in deionized water, and 150 μL of deionized water were incubated at an arbitrary temperature for 10 minutes. Then, 50 μL of the enzyme liquid preserved on ice and 400 μL of a solution of 2 mM pentosidine dissolved in a 100 mM potassium phosphate buffer (pH 8.0) incubated at an arbitrary temperature for 10 minutes were added thereto, and the mixture was stirred and reacted at an arbitrary temperature for 3 minutes. Time-dependent change in A555 during the reaction was measured in a spectrophotometer (U-3900, manufactured by Hitachi High-Tech Science Corp.). Time elapsed after the start of measurement—amount of change in A555 from 20 seconds to 60 seconds was regarded as an activity value.
The enzyme liquid treated at each temperature for 10 minutes was evaluated for residual activity by performing the activity measurement described above at a temperature of 37° C. using a 100 mM (final concentration) potassium phosphate buffer (final pH at the time of activity measurement: 7.5).

[3] = Method for measuring enzymatic activity (pentosidine oxidase activity, A555), Examples 9 and 10; format: biochemical
Procedure: The amount of the enzyme that produced 1 μmol of hydrogen peroxide per minute at 37° C. was defined as 1 unit (U). The activity was calculated according to the following expression.
Each buffer was prepared as a 50 mM (final concentration) citric acid-100 mM potassium phosphate buffer (pH 4.0 to 7.5), a 100 mM (final concentration) potassium phosphate buffer (pH 6.5 to 8.0), and a 100 mM (final concentration) glycine buffer (pH 8.0 to 11.0). Enzyme reaction was performed at each pH at a temperature of 37° C. using these buffers. […] It was therefore concluded that the optimum pH of PenOX2 is pH 6.5 to 8.0 and is most preferably pH 7.5.
The activity of PenOX2 was measured at varying temperatures using a 50 mM (final concentration) potassium phosphate buffer (pH 7.5). […] It was thus concluded that the range of the optimum temperature of PenOX2 is from 37° C. to 50° C.
As mentioned above, both PenOX1 and PenOX2 had pentosidine oxidase activity. When the percent match between their amino acid sequences was examined using the BLAST program, the amino acid sequence homology therebetween was 38.2%. […] The amino acid sequence homology to PenOX1 and PenOX2 and pentosidine oxidase activity of each enzyme were as follows.

B1: PenOX2: protein having the amino acid sequence of SEQ ID NO: 4, pentosidine oxidase from a filamentous fungus of the genus Sarocladium (protein, listed as Sarocladium sp.)
chain: MFTPKAWIPLLALSREVFSNPTSASHSISFHGLLGVSSESVHNIHLTYGDAFPHGDFRVVFGDCGMTSEDELHHEVASLSTKMESAPDRLVWLVPKDVRENGCLHAFSEGVLLGRSEPVAFTEPLRKRESLSEIGDSDGLWFSGIRYLQSSNLTSVKAAEAKEKKIGIVGGGISGLMTSLLLTSVGMTNWHIIEATERVGGRIRTKYMNGTSPDDYQYQEMGPMRFPVEVKYNDTNETLPIQDHKMVFQLAEVLNEMNGNDTDLAVKFIPWTQNNPNTPANSRGYRLPDGRIPTAAQIAQNPSILPAAANASDPQDAELGKESLERLSDLTPERMRNISANIFKAHRDAIDRGLFHWSEAAYLRYQLGLDDDTVDFVAASDNYPMFPDWWHAVYFAATKWLTIDKGLDSLSRAFVPHVKDKITYGRKIEAMQWNESTSKISLSWRESPLAAAKSDEYDYAVVAVPFSKVRLWKRPAYSNLLTRAIGKLNYEQACKVALLYETRFWEHQEIPIFGGCGSVDIPGIGGVCYPSYEINSTRPGVILSSYITGTEARSVVALSEEDHVAMVQRAMVEVHGPMADEQWTGIYDRLCWEVDENAAGGWASPTVGQQELFIPAYHKTELNTIFIGEHTSITHGWIFSALESSVRGTTQLLLDLGLVDEAKQIVETWMARWITV
pentosidine oxidizing activity [1]: exhibits pentosidine oxidizing activity
heat stability (stable up to) [2]: around 30 °C
temperature at which the highest activity was exhibited ([3]; 50 mM potassium phosphate buffer pH 7.5, FIG. 8): around 50 °C
Km ([3]; 37° C., pH 7.5, Lineweaver-Burk plot, FIG. 11, read-out: Km value for pentosidine (free form)): 70 µM
pH of highest activity ([3]; 37° C., FIG. 7): 7.5 pH
